Experimental data published in patent US20250368745A1 (published 2025).

T1: human IL-18BP (human, UniProt O95998 31-194)
T1 construct: UniProt printed as 095998; also called hIL-18BP
T1 sequence: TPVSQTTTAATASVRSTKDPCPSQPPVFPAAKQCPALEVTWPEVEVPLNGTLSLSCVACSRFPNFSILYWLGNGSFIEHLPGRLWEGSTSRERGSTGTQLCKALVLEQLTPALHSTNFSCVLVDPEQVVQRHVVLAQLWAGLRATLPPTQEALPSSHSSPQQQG

B1: SA301a LC-Q89A (antibody, V domains shown)
VH: QVQLQESGPGLVKPSQTLSLTCTVSGYSITSDYNSHWIRQPPGKGLEWIGYIHYSGSTNYNPSLKSRVTISRDTSKNQFSLKLSSVTAADTAVYYCARNYGSIYVNYFDYWGQGTLVTVSS
VL: EIVLTQSPATLSLSPGERATLSCSASSSVSYMYWYQQKPGQAPRPLIYRTSNLASGIPARFSGSGSGTDFTLTISSLEPEDFAVYYCAQYHSYPTFGGGTKVEIK
B2: SA301a LC-S93L (antibody, V domains shown)
VH: QVQLQESGPGLVKPSQTLSLTCTVSGYSITSDYNSHWIRQPPGKGLEWIGYIHYSGSTNYNPSLKSRVTISRDTSKNQFSLKLSSVTAADTAVYYCARNYGSIYVNYFDYWGQGTLVTVSS
VL: EIVLTQSPATLSLSPGERATLSCSASSSVSYMYWYQQKPGQAPRPLIYRTSNLASGIPARFSGSGSGTDFTLTISSLEPEDFAVYYCQQYHLYPTFGGGTKVEIK
B3: SA301a LC-S93Q (antibody, V domains shown)
VH: QVQLQESGPGLVKPSQTLSLTCTVSGYSITSDYNSHWIRQPPGKGLEWIGYIHYSGSTNYNPSLKSRVTISRDTSKNQFSLKLSSVTAADTAVYYCARNYGSIYVNYFDYWGQGTLVTVSS
VL: EIVLTQSPATLSLSPGERATLSCSASSSVSYMYWYQQKPGQAPRPLIYRTSNLASGIPARFSGSGSGTDFTLTISSLEPEDFAVYYCQQYHQYPTFGGGTKVEIK
B4: SA301a LC-S93A (antibody, V domains shown)
VH: QVQLQESGPGLVKPSQTLSLTCTVSGYSITSDYNSHWIRQPPGKGLEWIGYIHYSGSTNYNPSLKSRVTISRDTSKNQFSLKLSSVTAADTAVYYCARNYGSIYVNYFDYWGQGTLVTVSS
VL: EIVLTQSPATLSLSPGERATLSCSASSSVSYMYWYQQKPGQAPRPLIYRTSNLASGIPARFSGSGSGTDFTLTISSLEPEDFAVYYCQQYHAYPTFGGGTKVEIK
B5: SA301a LC-H92Y (antibody, V domains shown)
VH: QVQLQESGPGLVKPSQTLSLTCTVSGYSITSDYNSHWIRQPPGKGLEWIGYIHYSGSTNYNPSLKSRVTISRDTSKNQFSLKLSSVTAADTAVYYCARNYGSIYVNYFDYWGQGTLVTVSS
VL: EIVLTQSPATLSLSPGERATLSCSASSSVSYMYWYQQKPGQAPRPLIYRTSNLASGIPARFSGSGSGTDFTLTISSLEPEDFAVYYCQQYYSYPTFGGGTKVEIK
B6: SA301a LC-H92V (antibody, V domains shown)
VH: QVQLQESGPGLVKPSQTLSLTCTVSGYSITSDYNSHWIRQPPGKGLEWIGYIHYSGSTNYNPSLKSRVTISRDTSKNQFSLKLSSVTAADTAVYYCARNYGSIYVNYFDYWGQGTLVTVSS
VL: EIVLTQSPATLSLSPGERATLSCSASSSVSYMYWYQQKPGQAPRPLIYRTSNLASGIPARFSGSGSGTDFTLTISSLEPEDFAVYYCQQYVSYPTFGGGTKVEIK
B7: SA301a LC-H92E (antibody, V domains shown)
VH: QVQLQESGPGLVKPSQTLSLTCTVSGYSITSDYNSHWIRQPPGKGLEWIGYIHYSGSTNYNPSLKSRVTISRDTSKNQFSLKLSSVTAADTAVYYCARNYGSIYVNYFDYWGQGTLVTVSS
VL: EIVLTQSPATLSLSPGERATLSCSASSSVSYMYWYQQKPGQAPRPLIYRTSNLASGIPARFSGSGSGTDFTLTISSLEPEDFAVYYCQQYESYPTFGGGTKVEIK
B8: SA301a LC-S93M (antibody, V domains shown)
VH: QVQLQESGPGLVKPSQTLSLTCTVSGYSITSDYNSHWIRQPPGKGLEWIGYIHYSGSTNYNPSLKSRVTISRDTSKNQFSLKLSSVTAADTAVYYCARNYGSIYVNYFDYWGQGTLVTVSS
VL: EIVLTQSPATLSLSPGERATLSCSASSSVSYMYWYQQKPGQAPRPLIYRTSNLASGIPARFSGSGSGTDFTLTISSLEPEDFAVYYCQQYHMYPTFGGGTKVEIK
B9: SA301a LC-Q89L (antibody, V domains shown)
VH: QVQLQESGPGLVKPSQTLSLTCTVSGYSITSDYNSHWIRQPPGKGLEWIGYIHYSGSTNYNPSLKSRVTISRDTSKNQFSLKLSSVTAADTAVYYCARNYGSIYVNYFDYWGQGTLVTVSS
VL: EIVLTQSPATLSLSPGERATLSCSASSSVSYMYWYQQKPGQAPRPLIYRTSNLASGIPARFSGSGSGTDFTLTISSLEPEDFAVYYCLQYHSYPTFGGGTKVEIK
B10: SA301a LC-S93I (antibody, V domains shown)
VH: QVQLQESGPGLVKPSQTLSLTCTVSGYSITSDYNSHWIRQPPGKGLEWIGYIHYSGSTNYNPSLKSRVTISRDTSKNQFSLKLSSVTAADTAVYYCARNYGSIYVNYFDYWGQGTLVTVSS
VL: EIVLTQSPATLSLSPGERATLSCSASSSVSYMYWYQQKPGQAPRPLIYRTSNLASGIPARFSGSGSGTDFTLTISSLEPEDFAVYYCQQYHIYPTFGGGTKVEIK
B11: SA301a LC-S93D (antibody, V domains shown)
VH: QVQLQESGPGLVKPSQTLSLTCTVSGYSITSDYNSHWIRQPPGKGLEWIGYIHYSGSTNYNPSLKSRVTISRDTSKNQFSLKLSSVTAADTAVYYCARNYGSIYVNYFDYWGQGTLVTVSS
VL: EIVLTQSPATLSLSPGERATLSCSASSSVSYMYWYQQKPGQAPRPLIYRTSNLASGIPARFSGSGSGTDFTLTISSLEPEDFAVYYCQQYHDYPTFGGGTKVEIK
B12: SA301a LC-S93P (antibody, V domains shown)
VH: QVQLQESGPGLVKPSQTLSLTCTVSGYSITSDYNSHWIRQPPGKGLEWIGYIHYSGSTNYNPSLKSRVTISRDTSKNQFSLKLSSVTAADTAVYYCARNYGSIYVNYFDYWGQGTLVTVSS
VL: EIVLTQSPATLSLSPGERATLSCSASSSVSYMYWYQQKPGQAPRPLIYRTSNLASGIPARFSGSGSGTDFTLTISSLEPEDFAVYYCQQYHPYPTFGGGTKVEIK
B13: SA301a LC-H92T (antibody, V domains shown)
VH: QVQLQESGPGLVKPSQTLSLTCTVSGYSITSDYNSHWIRQPPGKGLEWIGYIHYSGSTNYNPSLKSRVTISRDTSKNQFSLKLSSVTAADTAVYYCARNYGSIYVNYFDYWGQGTLVTVSS
VL: EIVLTQSPATLSLSPGERATLSCSASSSVSYMYWYQQKPGQAPRPLIYRTSNLASGIPARFSGSGSGTDFTLTISSLEPEDFAVYYCQQYTSYPTFGGGTKVEIK
B14: SA301a LC-H92A (antibody, V domains shown)
VH: QVQLQESGPGLVKPSQTLSLTCTVSGYSITSDYNSHWIRQPPGKGLEWIGYIHYSGSTNYNPSLKSRVTISRDTSKNQFSLKLSSVTAADTAVYYCARNYGSIYVNYFDYWGQGTLVTVSS
VL: EIVLTQSPATLSLSPGERATLSCSASSSVSYMYWYQQKPGQAPRPLIYRTSNLASGIPARFSGSGSGTDFTLTISSLEPEDFAVYYCQQYASYPTFGGGTKVEIK
B15: SA301a LC-S93K (antibody, V domains shown)
VH: QVQLQESGPGLVKPSQTLSLTCTVSGYSITSDYNSHWIRQPPGKGLEWIGYIHYSGSTNYNPSLKSRVTISRDTSKNQFSLKLSSVTAADTAVYYCARNYGSIYVNYFDYWGQGTLVTVSS
VL: EIVLTQSPATLSLSPGERATLSCSASSSVSYMYWYQQKPGQAPRPLIYRTSNLASGIPARFSGSGSGTDFTLTISSLEPEDFAVYYCQQYHKYPTFGGGTKVEIK
B16: SA301a LC-S93G (antibody, V domains shown)
VH: QVQLQESGPGLVKPSQTLSLTCTVSGYSITSDYNSHWIRQPPGKGLEWIGYIHYSGSTNYNPSLKSRVTISRDTSKNQFSLKLSSVTAADTAVYYCARNYGSIYVNYFDYWGQGTLVTVSS
VL: EIVLTQSPATLSLSPGERATLSCSASSSVSYMYWYQQKPGQAPRPLIYRTSNLASGIPARFSGSGSGTDFTLTISSLEPEDFAVYYCQQYHGYPTFGGGTKVEIK
B17: SA301a LC-S93F (antibody, V domains shown)
VH: QVQLQESGPGLVKPSQTLSLTCTVSGYSITSDYNSHWIRQPPGKGLEWIGYIHYSGSTNYNPSLKSRVTISRDTSKNQFSLKLSSVTAADTAVYYCARNYGSIYVNYFDYWGQGTLVTVSS
VL: EIVLTQSPATLSLSPGERATLSCSASSSVSYMYWYQQKPGQAPRPLIYRTSNLASGIPARFSGSGSGTDFTLTISSLEPEDFAVYYCQQYHFYPTFGGGTKVEIK
B18: SA301a LC-Y94S (antibody, V domains shown)
VH: QVQLQESGPGLVKPSQTLSLTCTVSGYSITSDYNSHWIRQPPGKGLEWIGYIHYSGSTNYNPSLKSRVTISRDTSKNQFSLKLSSVTAADTAVYYCARNYGSIYVNYFDYWGQGTLVTVSS
VL: EIVLTQSPATLSLSPGERATLSCSASSSVSYMYWYQQKPGQAPRPLIYRTSNLASGIPARFSGSGSGTDFTLTISSLEPEDFAVYYCQQYHSSPTFGGGTKVEIK
B19: SA301a LC-H92F (antibody, V domains shown)
VH: QVQLQESGPGLVKPSQTLSLTCTVSGYSITSDYNSHWIRQPPGKGLEWIGYIHYSGSTNYNPSLKSRVTISRDTSKNQFSLKLSSVTAADTAVYYCARNYGSIYVNYFDYWGQGTLVTVSS
VL: EIVLTQSPATLSLSPGERATLSCSASSSVSYMYWYQQKPGQAPRPLIYRTSNLASGIPARFSGSGSGTDFTLTISSLEPEDFAVYYCQQYFSYPTFGGGTKVEIK
B20: SA301a LC-S93V (antibody, V domains shown)
VH: QVQLQESGPGLVKPSQTLSLTCTVSGYSITSDYNSHWIRQPPGKGLEWIGYIHYSGSTNYNPSLKSRVTISRDTSKNQFSLKLSSVTAADTAVYYCARNYGSIYVNYFDYWGQGTLVTVSS
VL: EIVLTQSPATLSLSPGERATLSCSASSSVSYMYWYQQKPGQAPRPLIYRTSNLASGIPARFSGSGSGTDFTLTISSLEPEDFAVYYCQQYHVYPTFGGGTKVEIK
B21: SA301a LC-Q89E (antibody, V domains shown)
VH: QVQLQESGPGLVKPSQTLSLTCTVSGYSITSDYNSHWIRQPPGKGLEWIGYIHYSGSTNYNPSLKSRVTISRDTSKNQFSLKLSSVTAADTAVYYCARNYGSIYVNYFDYWGQGTLVTVSS
VL: EIVLTQSPATLSLSPGERATLSCSASSSVSYMYWYQQKPGQAPRPLIYRTSNLASGIPARFSGSGSGTDFTLTISSLEPEDFAVYYCEQYHSYPTFGGGTKVEIK
B22: SA301a LC-S93Y (antibody, V domains shown)
VH: QVQLQESGPGLVKPSQTLSLTCTVSGYSITSDYNSHWIRQPPGKGLEWIGYIHYSGSTNYNPSLKSRVTISRDTSKNQFSLKLSSVTAADTAVYYCARNYGSIYVNYFDYWGQGTLVTVSS
VL: EIVLTQSPATLSLSPGERATLSCSASSSVSYMYWYQQKPGQAPRPLIYRTSNLASGIPARFSGSGSGTDFTLTISSLEPEDFAVYYCQQYHYYPTFGGGTKVEIK

These binders were tested against T1, human IL-18BP (assay: BLI, apparent KD).

Q: With B1 as the binder, how does the Kd read?
A: Its Kd is 0.39 nM.

Q: Which Kd does the source give for B2 here?
A: The Kd was 0.23 nM.

Q: With B3 as the binder, how does the Kd read?
A: Its Kd is 0.24 nM.

Q: B4 was tested. Which Kd did it give?
A: Its Kd is 0.52 nM.

Q: How did the Kd turn out when B5 was run?
A: Its Kd is 0.1 nM.

Q: How did the Kd turn out when B6 was run?
A: Its Kd is 0.2 nM.

Q: Which Kd does the source give for B7 here?
A: The Kd was 0.36 nM.

Q: B8 was tested. Which Kd did it give?
A: The Kd was 0.14 nM.

Q: B9 was tested. Which Kd did it give?
A: The Kd was 0.85 nM.

Q: Which Kd does the source give for B10 here?
A: Its Kd is 0.21 nM.

Q: Which Kd does the source give for B11 here?
A: The Kd was 0.23 nM.

Q: Which Kd does the source give for B12 here?
A: The Kd was 0.41 nM.

Q: B13 was tested. Which Kd did it give?
A: Its Kd is 0.15 nM.

Q: For B14, which Kd is on record?
A: The Kd was 0.95 nM.

Q: How did the Kd turn out when B15 was run?
A: The Kd was 0.16 nM.

Q: With B16 as the binder, how does the Kd read?
A: The Kd was 0.08 nM.

Q: For B17, which Kd is on record?
A: Its Kd is 0.15 nM.

Q: For B18, which Kd is on record?
A: The Kd was 0.63 nM.

Q: How did the Kd turn out when B19 was run?
A: The Kd was 0.7 nM.

Q: With B20 as the binder, how does the Kd read?
A: Its Kd is 0.19 nM.

Q: Which Kd does the source give for B21 here?
A: Its Kd is 0.46 nM.

Q: For B22, which Kd is on record?
A: Its Kd is 0.19 nM.
